# Measured values published in patent US20110294738A1, “PTHR1 RECEPTOR COMPOUNDS” (priority 2008, published 2011).
# Read-outs that look alike come from different tables or passages of the source. Peptide text beside a SMILES is read from it. * marks the point of attachment. Palmitoyl = CCCCCCCCCCCCCCCC(=O)*
# What was measured:
# PTHR1 [1] = target: T1, PTHR1 (Rattus norvegicus, UniProt P25961); test: cAMP screening assay using DiscoveRX XS+ kit (PTH1-34 dose-response in UMR-106 cells); settings: compound 10 μM; for Inhibition of Maximal Response: PTH1-34 stimulated maximal response, 1−(Emax compound/Emax vehicle); for Fold Shift of EC50: PTH1-34 EC50 compound/EC50 vehicle
# T1 sequence (P25961 27-591): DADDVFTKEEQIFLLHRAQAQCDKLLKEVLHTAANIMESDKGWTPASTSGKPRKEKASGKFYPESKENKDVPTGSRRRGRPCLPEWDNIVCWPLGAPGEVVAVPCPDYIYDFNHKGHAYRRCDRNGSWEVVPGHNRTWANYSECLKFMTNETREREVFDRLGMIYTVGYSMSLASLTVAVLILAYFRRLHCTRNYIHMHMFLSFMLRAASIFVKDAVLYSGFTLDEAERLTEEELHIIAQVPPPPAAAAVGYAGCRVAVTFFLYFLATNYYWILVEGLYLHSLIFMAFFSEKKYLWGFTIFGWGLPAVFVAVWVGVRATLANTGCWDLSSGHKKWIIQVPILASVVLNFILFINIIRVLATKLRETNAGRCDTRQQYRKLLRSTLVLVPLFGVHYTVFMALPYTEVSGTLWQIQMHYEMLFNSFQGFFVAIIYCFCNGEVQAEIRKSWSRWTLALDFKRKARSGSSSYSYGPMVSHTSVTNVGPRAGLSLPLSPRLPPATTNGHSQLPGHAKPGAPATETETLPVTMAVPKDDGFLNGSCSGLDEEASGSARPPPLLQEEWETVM
# Experimental: (§1) cAMP Screening Assay Using DiscoveRX XS+ Kit
# (§2) UMR-106 cells were seeded in 96-well white plates at 10K cells/well in growth media. Twenty four hours after seeding, cell media was removed by gentle dumping and replaced with 30 μL of compounds diluted to 10 μM final concentration in assay buffer (Hank's balanced Salt Solution, 20 mM HEPES, pH 7.4, 0.1 μM IBMX). After 30 minute incubation at room temperature, 10 μL human PTH1-34 serial diluted in assay buffer was added. Cells were incubated at 37° C. for 15 minutes before 10 μL of water soluble analog of forskolin, NKH477 was added to final concentration of 10 μM followed by 60 minute incubation at room temperature. DiscoveRX cAMP XS+ kit reagents were then added following manufacture protocol. Briefly, 10 μL of antibody was added to each well followed by 40 μL of ED/Lysis buffer mix (1/5/19 for Galacon-star/Emerald/Lysis buffer and then 1:1 with ED). After 1 hour incubation, 40 μL of EA reagent was added followed by at least 1 hour incubation before the plates were read on TopCount reader. Data was analyzed using GraphPad Prism. PTH1-34 dose-response curves were fitted using non-linear curve fit (Y=Bottom+(Top−Bottom)/(1+10̂((Log EC50−X)*HillSlope))). PTH1-34 EC50 values calculated in the presence of compounds were compared to that in the presence of vehicle control. The ratio of the EC50 values were calculated and presented as fold shift (EC50 compound/EC50 vehicle). The effect of compounds on PTH1-34 stimulated maximal response was also assessed and was presented percent inhibition (1−(Emax compound/Emax vehicle)).
# PTHR1 [2] = target: T1, PTHR1
# Experimental: as §1, §2
Compound,Inhibition of Maximal Response (PTHR1 [1]) [%],Fold Shift of EC50 (PTHR1 [2]),Fold Shift of EC50 (PTHR1 [1])
HSLIFMAFFSEKKYLWGFT [Compound 36],5.90,1.2,–
RRLHSTRNYIHMH [Compound 1],5.50,1.3,–
RRLHSTRNYIHM [Compound 15],1.50,1.7,–
RETNAGRSDTRQQYRKLLFS [Compound 58],–,17.74,–
LAYFRRLHSTR [Compound 4],−74.20,0.9,–
LHSLIFMAFFSEKKYLWGFT [Compound 37],35.60,1.1,–
LYLHSLIFMAFFSEKKYLWG [Compound 38],21.90,1.1,–
LYLHSLIFMAFFSEKKYL [Compound 39],29.30,1.3,–
LAYFRRLHSTRNYIHMH [Compound 10],24.10,1.1,–
CCCCCCCCCCCCCCCC(=O)N[C@@H](Cc1c[nH]c2ccccc12)C(=O)N[C@H](C(=O)N[C@@H](CC(C)C)C(=O)N[C@@H](C)C(=O)N[C@@H](CC(C)C)C(=O)N[C@@H](CC(=O)O)C(=O)NC(Cc1ccccc1)C(=O)N[C@@H](CCCCN)C(=O)N[C@@H](CCCNC(=N)N)C(=O)N[C@@H](CCCCN)C(=O)N[C@@H](C)C(=O)N[C@@H](CCCNC(=N)N)C(N)=O)[C@@H](C)O (stereo partly drawn) [Compound 103],–,1.2,–
KLRETNAGRSDTRQQRKLL [Compound 47],8.30,2.7,–
LAYFRRLHSTRNYIH [Compound 5],13.00,1,–
GGYFRRLHSTRNYIH [Compound 13],29.20,0.7,–
SGRRLHSTRNYIHMH [Compound 17],39.40,2.8,–
Pal-NGEVQAEIKKSWSRWTLALD-amide (Palmitoyl-NGEVQAEIKKSWSRWTLALD-NH2; SMILES CCCCCCCCCCCCCCCC(=O)N[C@@H](CC(N)=O)C(=O)NCC(=O)N[C@@H](CCC(=O)O)C(=O)N[C@H](C(=O)N[C@@H](CCC(N)=O)C(=O)N[C@@H](C)C(=O)N[C@@H](CCC(=O)O)C(=O)N[C@H](C(=O)N[C@@H](CCCCN)C(=O)N[C@@H](CCCCN)C(=O)N[C@@H](CO)C(=O)N[C@@H](Cc1c[nH]c2ccccc12)C(=O)N[C@@H](CO)C(=O)N[C@@H](CCCNC(=N)N)C(=O)N[C@@H](Cc1c[nH]c2ccccc12)C(=O)N[C@H](C(=O)N[C@@H](CC(C)C)C(=O)N[C@@H](C)C(=O)N[C@@H](CC(C)C)C(=O)N[C@@H](CC(=O)O)C(N)=O)[C@@H](C)O)[C@@H](C)CC)C(C)C) [Compound 105],34.00,1.1,–
RRLHSTRNYIHMHL [Compound 16],–,2.45,–
YFRRLHSTRNYIH [Compound 6],10.80,1,–
TNAGRSDTRQQYRKLLKSTL [Compound 52],1.70,11.1,–
LAYFRRLHSTRNYI [Compound 9],12.70,1.1,–
TNAGRSDTRQQYRKLL [Compound 68],–,12.36,–
Pal-TNAGRSATRQQYRKLL-amide (Palmitoyl-TNAGRSATRQQYRKLL-NH2; SMILES CCCCCCCCCCCCCCCC(=O)N[C@H](C(=O)N[C@@H](CC(N)=O)C(=O)N[C@@H](C)C(=O)NCC(=O)N[C@@H](CCCNC(=N)N)C(=O)N[C@@H](CO)C(=O)N[C@@H](C)C(=O)N[C@H](C(=O)N[C@@H](CCCNC(=N)N)C(=O)N[C@@H](CCC(N)=O)C(=O)N[C@@H](CCC(N)=O)C(=O)N[C@@H](Cc1ccc(O)cc1)C(=O)N[C@@H](CCCNC(=N)N)C(=O)N[C@@H](CCCCN)C(=O)N[C@@H](CC(C)C)C(=O)N[C@@H](CC(C)C)C(N)=O)[C@@H](C)O)[C@@H](C)O) [Compound 82],−21.60,–,23.4
SSYFRRLHSTRNYIH [Compound 12],26.60,–,0.9
AYFRRLHSTRNYIH [Compound 7],36.00,1.2,–
CCCCCCCCCCCCCCCC(=O)N[C@@H](CC(N)=O)C(=O)NCC(=O)N[C@@H](CCC(=O)O)C(=O)N[C@H](C(=O)N[C@@H](CCC(N)=O)C(=O)N[C@@H](C)C(=O)N[C@@H](CCC(=O)O)C(=O)N[C@H](C(=O)N[C@@H](CCCCN)C(=O)N[C@@H](CCCCN)C(=O)N[C@@H](CO)C(=O)N[C@@H](Cc1c[nH]c2ccccc12)C(N)=O)[C@@H](C)CC)C(C)C [Compound 99] (Palmitoyl-NGEVQAEIKKSW-NH2),–,1,–
AGRSDTRQQYRKLLKS [Compound 65],–,14.65,–
YLHSLIFMAFFSEKKYLWGFT [Compound 35],24.50,1.1,–
GSEKKYLWG [Compound 43],5.70,1.4,–
LAYFRRLHSTRN [Compound 14],15.20,0.7,–
LAYFRRLHSTRNY [Compound 3],−51.40,–,0.7
RETNAGRSDTRQQYRKLLKS [Compound 51],–,12.45,–

# Further lines, with some results ahead:
Inhibition of Maximal Response (PTHR1 [1]) [%],Compound,Fold Shift of EC50 (PTHR1 [2]),Fold Shift of EC50 (PTHR1 [1])
32.30,SGRVLATKLRETNA [Compound 73],0.8,–
−39.00,RSDTRQQYRKLLKS [Compound 66],16.4,–
4.30,RETNAGRSDTRQQYRK [Compound 60],3.3,–
22.30,SGRVLATKLRET [Compound 72],0.7,–
7.00,EIKKSWSRWTLALDFKRKAR [Compound 96],1.1,–
12.60,RVLATKLRETNAGR [Compound 75],1.1,–
0.50,NGEVQAEIKKSWSRWTLA [Compound 98],1,–
2.50,TNAGRSDTRQQYRK [Compound 69],5.2,–
−25.20,TNAGRSDTRQQYRKLLK [Compound 84],9.1,–
−25.00,TNAGRSDTRQQYRKLA [Compound 88],2.8,–
25.30,NGEVQAEIKKSWSRWT [Compound 101],1.2,–
6.90,DTRQQYRKLLKS [Compound 67],6,–
26.80,SRWTLALDFKRKAR [Compound 104],1.2,–
−5.40,RETNAGRSDTRQQY [Compound 62],1.1,–
17.50,NIVRVLATKLRETNAGR [Compound 54],0.7,–
37.20,KKSWSRWTLALDFKRKAR [Compound 97],4.7,–

Inhibition of Maximal Response (PTHR1 [1]) [%],Compound,Fold Shift of EC50 (PTHR1 [2]),Fold Shift of EC50 (PTHR1 [1])
8.00,TNAGRSDTRQQYRKLLA [Compound 87],4.1,–
−24.40,AGRSDTRQQYRKLLFA [Compound 94],18.7,–
26.10,NIVRVLATKLRE [Compound 55],0.6,–
22.20,SGRVLATKLRETNAGR [Compound 74],1.9,–
13.50,SGRVLATKLR [Compound 71],0.8,–
−38.80,RQQYRKLLKSTL [Compound 57],15.6,–
3.00,RETNAGRSDTRQQYRKLL [Compound 59],5.2,–
−20.80,TNAGRSDTRAQYRKLL [Compound 81],–,13.8
26.80,NGEVQAEIKKSWSR [Compound 100],1.8,–
−5.70,AGRSDTRQQYRKLLFS [Compound 95],–,19
−5.80,TNAGRSDTRQQYRKLLF [Compound 83],7,–
−29.20,TNAGRSDTAQQYRKLL [Compound 78],–,12.7
21.00,TNAGRSDTRQQYRALL [Compound 90],–,2
1.20,TNAGRSDARQQYRKLL [Compound 79],–,7.2
8.30,TNAGRSDTRQQARKLL [Compound 92],–,5
2.40,TNAGASDTRQQYRKLL [Compound 76],–,16.9
